Results from paper doi:10.1101/2024.11.26.625551 (bioRxiv, 2024).

Legend:
crystal structure = target: the molecule itself; experiment: crystal structure
[1] = target: GST-tagged mouse Cavin1 HR1 domain (Mus musculus, UniProt O54724); experiment: pull-down
[2] = target: His-MBP full-length mouse Cavin1 (Mus musculus (Mouse)., UniProt O54724); experiment: ITC
[3] = target: zebrafish Cavin4a HR1 domain (Danio rerio, UniProt A1L260); experiment: ITC
[4] = target: zebrafish Cavin4b HR1 domain (Danio rerio, UniProt A0A8M1N3J3); experiment: ITC
[5] = target: mouse Cavin1 HR1 domain (His-Ub construct) (Mus musculus (Mouse)., UniProt O54724); experiment: ITC
[6] = target: mouse Cavin1 HR1 N-terminal fragment mC1-HR1(45-103) (Mus musculus, UniProt O54724); experiment: ITC
endogenous Cavin1 (HeLa) = endogenous Cavin1 (HeLa) (Homo sapiens (HeLa), UniProt Q6NZI2); experiment: co-IP
endogenous CAV1 (HeLa) = endogenous CAV1 (HeLa) (Homo sapiens (HeLa), UniProt Q03135); experiment: co-IP
endogenous CAV1 (HeLa), sequence (Q03135 whole entry): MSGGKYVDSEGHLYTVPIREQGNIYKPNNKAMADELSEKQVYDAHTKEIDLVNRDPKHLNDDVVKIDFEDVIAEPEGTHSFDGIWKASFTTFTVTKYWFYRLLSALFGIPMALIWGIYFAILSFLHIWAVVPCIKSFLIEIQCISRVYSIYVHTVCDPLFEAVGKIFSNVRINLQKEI

endogenous Cavin1 (HeLa), sequence (Q6NZI2 whole entry): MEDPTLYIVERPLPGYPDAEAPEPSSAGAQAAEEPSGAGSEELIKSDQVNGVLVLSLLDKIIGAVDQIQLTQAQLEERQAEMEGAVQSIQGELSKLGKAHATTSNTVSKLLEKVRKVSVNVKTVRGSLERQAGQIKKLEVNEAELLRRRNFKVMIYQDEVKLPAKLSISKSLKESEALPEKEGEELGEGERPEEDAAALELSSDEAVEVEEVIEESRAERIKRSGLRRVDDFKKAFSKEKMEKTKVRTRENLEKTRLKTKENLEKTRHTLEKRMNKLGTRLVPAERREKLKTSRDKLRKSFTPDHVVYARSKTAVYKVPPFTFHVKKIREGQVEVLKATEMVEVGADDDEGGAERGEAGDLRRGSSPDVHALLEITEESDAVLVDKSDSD
zebrafish Cavin4a HR1 domain, sequence (A1L260 whole entry, looked up, the tested form may be a part): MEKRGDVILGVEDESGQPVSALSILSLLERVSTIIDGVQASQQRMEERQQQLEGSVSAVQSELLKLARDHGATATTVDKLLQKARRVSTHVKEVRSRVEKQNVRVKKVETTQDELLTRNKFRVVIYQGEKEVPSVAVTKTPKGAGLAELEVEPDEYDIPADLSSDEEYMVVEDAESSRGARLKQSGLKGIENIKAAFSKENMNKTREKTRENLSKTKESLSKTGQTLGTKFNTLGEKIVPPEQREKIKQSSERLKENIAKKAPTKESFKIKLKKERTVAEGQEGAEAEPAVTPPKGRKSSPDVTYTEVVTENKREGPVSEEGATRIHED
His-MBP full-length mouse Cavin1, sequence (O54724 whole entry, the tested form may be a part): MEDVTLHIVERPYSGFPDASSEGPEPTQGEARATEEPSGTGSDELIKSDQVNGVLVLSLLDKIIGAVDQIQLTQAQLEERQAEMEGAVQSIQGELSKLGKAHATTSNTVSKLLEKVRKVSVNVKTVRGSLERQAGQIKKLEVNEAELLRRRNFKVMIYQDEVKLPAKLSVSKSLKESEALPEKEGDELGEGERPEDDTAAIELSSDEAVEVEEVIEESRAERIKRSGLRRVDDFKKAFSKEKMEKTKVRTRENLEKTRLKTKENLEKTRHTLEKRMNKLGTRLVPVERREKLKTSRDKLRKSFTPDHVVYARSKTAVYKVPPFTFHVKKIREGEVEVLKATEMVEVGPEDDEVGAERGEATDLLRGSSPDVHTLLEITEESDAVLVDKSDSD

B1: mouse Cavin1 HR1 domain (as crystallised with NbB7) (domain or fragment, UniProt O54724 45-155, looked up)
chain: LIKSDQVNGVLVLSLLDKIIGAVDQIQLTQAQLEERQAEMEGAVQSIQGELSKLGKAHATTSNTVSKLLEKVRKVSVNVKTVRGSLERQAGQIKKLEVNEAELLRRRNFKV
stoichiometry N (crystal structure): 3

B2: nanobody NbA12 (VHH)
VHH: QVQLQESGGGLVQAGGSLRLSCAASGFTFDDYAIGWFRQAPGKEREGVSCITSSDGSTYYADSVKGRFTISSDNAKNTVYLQMNSLKPEDTAVYYCAAESWPPLCHYSGMDYWGKGTQVTVSS
binding result [1]: binds | binding result [2]: binds | binding result [3]: no binding | binding result [4]: no binding | binding result [5]: binds | binding result [6]: binds

B3: NbB7-GFP (VHH)
VHH: QVQLQESGGGLVQAGGSLRLSCAVSGIRVNVNAMYWYRQAPGKQRELVAIITTFGSTNYADSAKGRFTISRDNTKNTVYLQMDNLKPEDTAVYYCNAPQFTDRYWGQGTQVTVSS
binding result (endogenous Cavin1 (HeLa)): binds | binding result (endogenous CAV1 (HeLa)): binds

B4: nanobody NbB7 (VHH)
VHH: B3 VHH
binding result [4]: no binding | Kd [5]: 520 nM
